The nature of this series: yeast display, Sf9 membrane polyspecificity reagent, FACS + sequencing; frameworks hold sequencing errors. Summed up:
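Genes from sorted yeast were amplified by colony PCR, read by MiSeq 2 × 250 sequencing and filtered on CDR length. These cells carried a synthetic nanobody library in Saccharomyces cerevisiae BJ5465 and were sorted by FACS into low and high (top ~1%) gates on anti-HA and streptavidin fluorescence. Polyreactivity is labelled according to the gate of origin.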
As to “QVQLVESGGGLVQAGGSLRLSCAASGFTFHYYTMGWYRQAPGKDRELVATIRWSAGSTYYADSVKGRFTISRDNAKNTVYLQMNSLKPEDTAVYYCAVRSLRVDKYGYWGQGTQVTVSS”, the “polyreactivity (PSR sort gate)” value is “high polyreactivity”.

“QVQLVESGGGLVQAGGSLRLSCAASGFTFIAYAKGWYRQAPGKERELVAAISRRGGSTYYADSVKGRFTISRDNAKNTVYLQMNSLKPEDTAVYYCAKESRKKTDYDYWGQGTQVTVSS”: the “polyreactivity (PSR sort gate)” value is recorded as “high polyreactivity”.

Regarding “QVQLVESGGGLVQAGGSLRLSCAASGFTFIGYAMGWYRQAPGKERELVAAITWRGGRTYYADSVKGRFTISRDNAKNTVYLQMNSLKPEDTAVYYCAADGYTVVNSYYWGQGTQVTVSS”, the “polyreactivity (PSR sort gate)” value is on record as “high polyreactivity”.

“QVQLVESGGGLVQAGGSLRLSCAASGFTFIKYAMGWYRQAPGKEREFVAAITRSGTSTYYADSVKGRFTISRDNAKNTVYLQMNSLKPEDTAVYYCAARYVYNSDRVSERDYWGQGTQVTVSS”: the “polyreactivity (PSR sort gate)” value is listed as “high polyreactivity”.

On to “QVQLVESGGGLVQAGGSLRLSCAASGFTFIKYAMGWYRQAPGKEREFVPTISWNGGNTYYADSVKGRFTISRYNAKNTVYLQMNSLKPEDTAVYYCAARVKYRTRGGTVVSYDYWGQGTQVTVSS”, for which the “polyreactivity (PSR sort gate)” value is reported as “high polyreactivity”.

“QVQLVESGGGLVQAGGSLRLSCAASGFTFILYTMGWYRQAPGKERELVAAITWRGGNTYYADSVKGRFTISRDNAKNTVYLQMNSLKPEDSAVYYCAAETYYASWEMDYWGQGTQVTVSS”: the “polyreactivity (PSR sort gate)” value is recorded as “high polyreactivity”.

In the case of “QVQLVESGGGLVQAGGSLRLSCAASGFTFIRYAMGWYRQAPGKERELVAAIRGTGTSTYYADSVKGRFTISRDNAKNTVYLQMNSLKPEDTAVYYCNKVSGRSPYTRYDYWGQGTQVTVSS”, the “polyreactivity (PSR sort gate)” value is on record as “low polyreactivity”.

For “QVQLVESGGGLVQAGGSLRLSCAASGFTFISNAMGWYRQAPGKERELVAAISSSGGRTYYADSVKGRFTISRDNAKNTVYLQMNSLKPEDTAVYYCNADRSLLYSRKIEYDYWGQGTQVSVSS”, the “polyreactivity (PSR sort gate)” value is “low polyreactivity”.

For the sequence “QVQLVESGGGLVQAGGSLRLSCAASGFTFKFYAMGWYRQAPGKERELVAAISGSGDSTYADSVKGRFTISRDNAKNTVYLQINSLKPEDTAVYYFNGRYAGVPWWGYYSRFDYWGQVTQVTVSS”, the “polyreactivity (PSR sort gate)” value is reported as “low polyreactivity”.

With “QVQLVESGGGLVQAGGSLRLSCAASGFTFKKYAMGWYRQAPGKERELVAAISSSGGRTTYADSVKGRFTISRDNAKNTVYLQMNSLKPEDTAVYYCNADRYTAVRAYDYWGQGTQVTVSS”, the “polyreactivity (PSR sort gate)” value is “low polyreactivity”.

For “QVQLVESGGGLVQAGGSLRLSCAASGFTFKRYAMGWYRQAPGKERELVAAITGSGGSTYYADSVKGRFTISRDNAKNTVYLQMNSLKPEDTAVYYCAKKRIYWSGRPTIGTYIMGYWGQGTQVTVSS”, the “polyreactivity (PSR sort gate)” value was “high polyreactivity”.

Regarding “QVQLVESGGGLVQAGGSLRLSCAASGFTFKSYAMGWYRQAPGKEREFVASISRRGGSTYYADSVKGRFTISRDNAKNTVYLQMNSLKPEDTAVYYCATDRPNWVFVDYNYWGQGTQVTVSS”, the “polyreactivity (PSR sort gate)” value is “high polyreactivity”.

Regarding “QVQLVESGGGLVQAGGSLRLSCAASGFTFKTNAMGWYRQAPGKERELVAAITSGGSTNYADSVKGRFTISRDNAKNTVYLQMNSLKPVDPAVYYCAADYGVWSEYAGWHAAFDYWGQGTQVTVSS”, the “polyreactivity (PSR sort gate)” value was “low polyreactivity”.

“QVQLVESGGGLVQAGGSLRLSCAASGFTFKWSAMGWYRPAPGKETELVATITIGGRTNYADSVKGRFTISRDNAKYTVYLQMNSLKPEDTAVYYGATYFVGFRLSDYDYWGQGTQVTVSS”: the “polyreactivity (PSR sort gate)” value is given as “low polyreactivity”.

With “QVQLVESGGGLVQAGGSLRLSCAASGFTFKYYAMGWYRQAPGKERELVATITRSGGNTYYADSVKGRFTISRDNAKNTVYLQMNSLKPEDTAVYYCNKGVRRSVYSRYDYWGQGTQVTVSS”, the “polyreactivity (PSR sort gate)” value is given as “high polyreactivity”.

Consider “QVQLVESGGGLVQAGGSLRLSCAASGFTFLFNAMGWYRQAPGKERELVADITWSGGSTYYADSVKGRFTISRDNAKNTVYLQMNSLKPEDTAVYYCAASDDWSTPIYYYSVFDYDYWGQGTQVTVSS”, for which the “polyreactivity (PSR sort gate)” value is recorded as “high polyreactivity”.

With “QVQLVESGGGLVQAGGSLRLSCAASGFTFLGYAMGWYRKAPGKERELDASITYGGDSTYYADSVKARFTISRDNAKNTFYLEMISLKPEDTAVYYCNARPSYWWGGRLYGYWGQGSQVTVSS”, the “polyreactivity (PSR sort gate)” value was “high polyreactivity”.

As for “QVQLVESGGGLVQAGGSLRLSCAASGFTFLKYAMGWYRQAPGKERELVARITSGGRTYYADSVKGRFTISRDNAKNTVYLQMNSLKPEDTAVYYCNAVKSYASLYAGFYYWGQGTQVTVSS”, the “polyreactivity (PSR sort gate)” value is recorded as “high polyreactivity”.

For “QVQLVESGGGLVQAGGSLRLSCAASGFTFLVYAMGWYRQAPGKERELVAAISRRGGSTYYADSVKGRFTISRDNAKNTVYLQINSLKPEDTAVYYCNVDRYYRIGYYRLTMGYWGQGTQVTVSS”, the “polyreactivity (PSR sort gate)” value is listed as “high polyreactivity”.

Take “QVQLVESGGGLVQAGGSLRLSCAASGFTFLVYAMGWYRQAPGKERELVAAITWSGDSTYYADSVKGRFTISRDNAKNTVYLQMNSLKPEDTAVYYCAAAYRYGTLYYYWGQGTQVTGSS”: the “polyreactivity (PSR sort gate)” value is “low polyreactivity”.

“QVQLVESGGGLVQAGGSLRLSCAASGFTFLYNVMGWYRQAPGKERELVAAISQSGTDTYYADSVKGRFTISRDNAKNTVYLQMNSLKPEDTAVYYCATEYYSQPRDDSWGQGTQVTVSS”: the “polyreactivity (PSR sort gate)” value was “low polyreactivity”.

For the sequence “QVQLVESGGGLVQAGGSLRLSCAASGFTFLYYDMGWYRQAPGKERELVAAITSSGTSTYYADSVKGRFTISRDNAKNSVYLQMNSLKPEDTAVYYCAVMYTYAGRHRYGYWGQGTQVTVSS”, the “polyreactivity (PSR sort gate)” value was “high polyreactivity”.

Regarding “QVQLVESGGGLVQAGGSLRLSCAASGFTFNANARGWYRQAPGKEREVVAVITRSGGRTYYADSVKGRFTISRDNAKNTVYFQMNSLNPEDTAVYYCAKEGPSRVYQGTDCASDSWGHGTQVTVSS”, the “polyreactivity (PSR sort gate)” value is “high polyreactivity”.

On to “QVQLVESGGGLVQAGGSLRLSCAASGFTFNCNAMGWYRQAPGKERELVAAIRSSGGSTYYADSVKGRFTISRDNAKYTVYLQMNSLKPEDTAVYYCAARRSNLYYGGTRYWYYYWGQGTQVTVSS”, for which the “polyreactivity (PSR sort gate)” value was “high polyreactivity”.

As for “QVQLVESGGGLVQAGGSLRLSCAASGFTFNDYAMGWYRQAPGKERELVAAIDWSGGRTYYADSVKGRFTISRDNAKNTVYLQMNSLKPDDTAVYYCAAVLYSRLYWYRLDYWGQGTQVTVSS”, the “polyreactivity (PSR sort gate)” value was “low polyreactivity”.

Take “QVQLVESGGGLVQAGGSLRLSCAASGFTFNGYAMGWYRQAPGKERELVAAINWSGGRTYYADSVKGRFTISRDNAKNTVYLQMNSLKPEDTAVYYCNAVLYVTNSFRFDYWGQGTQVTVSS”: the “polyreactivity (PSR sort gate)” value is recorded as “high polyreactivity”.

Regarding “QVQLVESGGGLVQAGGSLRLSCAASGFTFNNYAMGWYRQAPGKERELVAAISSGAGTYYADSVKGRFTISRDNAKNTVYLQMNSLNPVDTSVDYCNASLKYQGRTRITYRDDYWGQGTQVTVSS”, the “polyreactivity (PSR sort gate)” value was “low polyreactivity”.

As for “QVQLVESGGGLVQAGGSLRLSCAASGFTFNRNAMGWYRQAPGKERELVAAITKRGGSTFYADSVKGRFTISRDNAKNTVYLQMNSLKPEDTAVYYCAASVATYFPRHYDYWGQGTQVTVSS”, the “polyreactivity (PSR sort gate)” value is on record as “high polyreactivity”.

For the sequence “QVQLVESGGGLVQAGGSLRLSCAASGFTFNRYAMGWYRQAPGKEREFVAAITRRGGNTYYADSVKGRFTISRDNAKNTVYLQMNSLKPEDSAVYYCNAVFGPSSYGAKEYDYWGQGTQVTVSS”, the “polyreactivity (PSR sort gate)” value is “high polyreactivity”.

Regarding “QVQLVESGGGLVQAGGSLRLSCAASGFTFNRYAMGWYRQAPGKERELVARITRGGSTKYADSVKGRFTISRDNAKNTVYLEMNSLKPEDTAVYYCAADYGGFLVYDYWGQGTQVTVSS”, the “polyreactivity (PSR sort gate)” value was “high polyreactivity”.

With “QVQLVESGGGLVQAGGSLRLSCAASGFTFNSYAMGWYRQAPGKERELVAAISWSGGSTYYADSVKGRFTISRDNAKNTVYLQMNSLKPEDTAVYYCNRDGLSRPYYYWGQGTQVTLSS”, the “polyreactivity (PSR sort gate)” value is on record as “high polyreactivity”.

Regarding “QVQLVESGGGLVQAGGSLRLSCAASGFTFNSYVMGWSRQAPGKERELVAAITRSGDRTYYADSVKGRFTISRDNAKNTVYLQMNSLKPEDTAVYYCAATWSKNYYGWYYYWGQGTQVTVSS”, the “polyreactivity (PSR sort gate)” value is listed as “high polyreactivity”.

As for “QVQLVESGGGLVQAGGSLRLSCAASGFTFNYAMGWYTQAPGKERELVAAISSAGTTYYADSVKGRFTISRDNAKNTVYLQMNSLKPEDTAVYYCAALARPKQDRYRYYYWGQGTQVTVSS”, the “polyreactivity (PSR sort gate)” value is listed as “high polyreactivity”.

As to “QVQLVESGGGLVQAGGSLRLSCAASGFTFNYNAMGWYRQAPRKERELVAAISRSGGRTYYADSVKGRFTISRDKAKNTVYLQMNSLKPADTAVYYCAADSRTNGYDYWGQGTQVTVSS”, the “polyreactivity (PSR sort gate)” value is recorded as “high polyreactivity”.

For the sequence “QVQLVESGGGLVQAGGSLRLSCAASGFTFNYSAKGWYRQAPGKEREFVAAISRGGGRTYYADSVKGRFTISRDNANNTVYLQMNSLKPEATAVYSCAAQSVPYAYPLASYDYWGQGTQVTVSS”, the “polyreactivity (PSR sort gate)” value is on record as “high polyreactivity”.

Consider “QVQLVESGGGLVQAGGSLRLSCAASGFTFNYYAMGWSRQAPGKERELVAAITWDGGTTYYADSVKGRFTISRDNAKNTVYLQMNSLKPEDSAVYYCAADYAWVSIYDNVPSAPGYDYWGQGTQVTVSS”, for which the “polyreactivity (PSR sort gate)” value is on record as “low polyreactivity”.

For the sequence “QVQLVESGGGLVQAGGSLRLSCAASGFTFNYYAMGWYRQAPGKERELVAAISRSGGSTSYADSVKGRFTISRDNAKNTVYLQMNSLKPEDTAVYYCNAVRAIYRYDYWGQGTQVTVSS”, the “polyreactivity (PSR sort gate)” value is given as “high polyreactivity”.

Consider “QVQLVESGGGLVQAGGSLRLSCAASGFTFPDYAMGWYRQAPAKERELVAVITSGGSTYYADSVKGRFTISRDNAKNTVYLQMNSLKPEDTAVYYCATDFWDDDVEQRYDYWGQGTQVTVSS”, for which the “polyreactivity (PSR sort gate)” value is listed as “low polyreactivity”.

As for “QVQLVESGGGLVQAGGSLRLSCAASGFTFPDYAMGWYRQAPGKERELVAGISSTGDSTYYADSVKGRITISRDNAKNTVYLQMNSLKPEDTAVYYCNAAQERPIIILFSKYDYCGQGTQVTVSS”, the “polyreactivity (PSR sort gate)” value is on record as “low polyreactivity”.

As for “QVQLVESGGGLVQAGGSLRLSCAASGFTFPFYAMGWYRPAHRKERELVAAITASGGSTYYADSVKGRFTISRDNAKYTVYLQMNSLKPEDTAVYYCATSIYRGYYYWGQGTQVTVSS”, the “polyreactivity (PSR sort gate)” value is “high polyreactivity”.

The values above are taken from the nanobody polyreactivity screen of Harvey et al. (2022).
